# Experimental data reported in patent publication US20190119403A1 (published 2019).
# B1: Stefin A-derived antibody Fab (Fab, V domains shown)
# VH: not shown
# VL: DIQMTQSPSSLSASVGDRVTITCRASQDVNVVAGTTAVAWYQQKPGKAPKLLIYGGSKSLPGQNEDLSGGFLYSGVPSRFSGSRSGTDFTLTISSLQPEDFATYYCQQHLGGPITTPPTFGQGTKLEIKR
# Molecular target: human cathepsin B (Recombinant Human Procathepsin B, Novoprotein, converted into active form) (human, UniProt P07858 80-333)
# Test: enzyme inhibition
binder,measurement,value
B1,Ki,225 nM
